Measured values as given in PMC10130750, “The motor domain of the kinesin Kip2 promotes microtubule polymerization at microtubule tips” (The Journal of Cell Biology, 2023).

B3: coiled-coil domain of Bik1 (Bik1-CC, residues 182–396) (domain or fragment, S. cerevisiae, UniProt P11709 182-396, looked up)
chain: DNGHMNDLNSSEVTIELREAQLTIEKLQRKQLHYKRLLDDQRMVLEEVQPTFDRYEATIQEREKEIDHLKQQLELERRQQAKQKQFFDAENEQLLAVVSQLHEEIKENEERNLSHNQPTGANEDVELLKKQLEQLRNIEDQFELHKTKWAKEREQLKMHNDSLSKEYQNLSKELFLTKPQDSSSEEVASLTKKLEEANEKIKQLEQAQAQTAVES
notes: Bik1 coiled-coil domain, S. cerevisiae CLIP-170 ortholog, residues 182–396; Dimer by SEC-MALS (51 kD); source: recombinantly expressed and purified (E. coli BL21 (DE3), IMAC, SEC)

Experiments:
[1] = target: tubulin (free αβ-tubulin heterodimer) (not stated (bovine brain tubulin used for pelleting, pig brain tubulin for TIRF)) (UniProt Q6B856)
[2] = target: the molecule itself; test: SEC-MALS; 25°C; 20 mM Tris-HCl pH 7.5, 150 mM NaCl, 1 mM DTT; 4–8 mg/ml of each protein applied, single proteins and mixtures (Bik1-CC, Kip2-NMD, Kip2-NMD-ΔT)
[3] = target: T1, tubulin (free αβ-tubulin heterodimer) ( (bovine brain tubulin used …, UniProt Q6B856 1-445)); test: SEC-MALS; 25°C; 20 mM Hepes pH 7.4, 200 mM NaCl, 1 mM DTT; 4–8 mg/ml applied; MBP-Kip2(71-560)-mCherry or its P1^− mutant alone and mixed with tubulin; settings: both partners purified
[4] = target: the molecule itself; test: as above
[5] = target: T1, tubulin (free αβ-tubulin heterodimer); test: SEC-MALS; equimolar mixture of tubulin and Kip2-MD in its apo state; 25°C; settings: both partners purified
[6] = target: B3; test: SEC-MALS; 25°C; 20 mM Tris-HCl pH 7.5, 150 mM NaCl, 1 mM DTT; 4–8 mg/ml of each protein applied, single proteins and mixtures (Bik1-CC, Kip2-NMD, Kip2-NMD-ΔT); settings: both partners purified

Sequence of tubulin (free αβ-tubulin heterodimer) (not stated (bovine brain tubulin used for pelleting, pig brain tubulin for TIRF)) (Q6B856 whole entry, looked up, one chain of several): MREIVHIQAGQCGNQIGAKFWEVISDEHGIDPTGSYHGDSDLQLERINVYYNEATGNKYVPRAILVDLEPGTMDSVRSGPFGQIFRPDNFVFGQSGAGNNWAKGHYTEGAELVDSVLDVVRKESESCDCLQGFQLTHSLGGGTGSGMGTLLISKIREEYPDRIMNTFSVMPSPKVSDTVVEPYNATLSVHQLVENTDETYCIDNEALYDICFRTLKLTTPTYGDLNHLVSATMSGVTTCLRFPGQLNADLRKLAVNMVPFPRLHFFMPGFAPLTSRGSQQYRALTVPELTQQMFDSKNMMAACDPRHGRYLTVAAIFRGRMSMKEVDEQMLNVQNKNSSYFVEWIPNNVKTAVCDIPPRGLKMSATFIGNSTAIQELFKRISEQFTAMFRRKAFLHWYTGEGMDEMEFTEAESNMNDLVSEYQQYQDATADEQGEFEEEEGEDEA

B1: MBP-Kip2(1-560)-RFP (domain or fragment)
chain: MIQKMSPSLRRPSTRSSSGSSNIPQSPSVRSTSSFSNLTRNSIRSTSNSGSQSISASSTRSNSPLRSVSAKSDPFLHPGRIRIRRSDSINNNSRKNDTYTGSITVTIRPKPRSVGTSRDHVGLKSPRYSQPRSNSHHGSNTFVRDPWFITNDKTIVHEEIGEFKFDHVFASHCTNLEVYERTSKPMIDKLLMGFNATIFAYGMTGSGKTFTMSGNEQELGLIPLSVSYLFTNIMEQSMNGDKKFDVIISYLEIYNERIYDLLESGLEESGSRISTPSRLYMSKSNSNGLGVELKIRDDSQYGVKVIGLTERRCESSEELLRWIAVGDKSRKIGETDYNARSSRSHAIVLIRLTSTNVKNGTSRSSTLSLCDLAGSERATGQQERRKEGSFINKSLLALGTVISKLSADKMNSVGSNIPSPSASGSSSSSGNATNNGTSPSNHIPYRDSKLTRLLQPALSGDSIVTTICTVDTRNDAAAETMNTLRFASRAKNVALHVSKKSIISNGNNDGDKDRTIELLRRQLEEQRRMISELKNRSNIGEPLTKSSNESTYKDIKATGN
average speed of microtubule growth in dynamic microtubule assay (porcine tubulin), 2 nM Kip2-WT, fold increase over no addition [1]: > 13 fold
frequency of catastrophe in dynamic microtubule assay (porcine tubulin), 2 nM Kip2-WT, fold reduction against no addition [1]: 19 fold
length of freshly polymerized microtubules in dynamic microtubule assay (7 µM porcine tubulin, ATP), 2 nM Kip2-WT, fold over no addition [1]: 5 fold

B2: MBP-Kip2(1-560)-P1^−-RFP (domain or fragment)
chain: MIQKMSPSLRRPSTRSSSGSSNIPQSPSVRSTSSFSNLTRNSIRSTSNSGSQSISASSTRSNSPLRSVSAKSDPFLHPGRIRIRRSDSINNNSRKNDTYTGSITVTIRPKPRSVGTSRDHVGLKSPRYSQPRSNSHHGSNTFVRDPWFITNDKTIVHEEIGEFKFDHVFASHCTNLEVYERTSKPMIDKLLMGFNATIFAYGMTGSGKTFTMSGNEQELGLIPLSVSYLFTNIMEQSMNGDKKFDVIISYLEIYNERIYDLLESGLEESGSRISTPSRLYMSKSNSNGLGVELAIADDSQYGVKVIGLTERRCESSEELLRWIAVGDKSRKIGETDYNARSSRSHAIVLIRLTSTNVKNGTSRSSTLSLCDLAGSERATGQQERRKEGSFINKSLLALGTVISKLSADKMNSVGSNIPSPSASGSSSSSGNATNNGTSPSNHIPYRDSKLTRLLQPALSGDSIVTTICTVDTRNDAAAETMNTLRFASRAKNVALHVSKKSIISNGNNDGDKDRTIELLRRQLEEQRRMISELKNRSNIGEPLTKSSNESTYKDIKATGN
average growth speed of microtubules in dynamic microtubule assay (porcine tubulin), 2, 4 and 8 nM Kip2-P1^− (no speed-up at 2 nM), fold over no addition [1]: 2.9 fold
effect on catastrophe frequency in dynamic microtubule assay (porcine tubulin), 2 nM Kip2-P1^−, against the wild-type protein [1]: 10 fold

B3
stoichiometry N [2]: 2

B4: MBP-Kip2(71-560)-mCherry (domain or fragment, S. cerevisiae, UniProt P28743 71-560, looked up)
chain: KSDPFLHPGRIRIRRSDSINNNSRKNDTYTGSITVTIRPKPRSVGTSRDHVGLKSPRYSQPRSNSHHGSNTFVRDPWFITNDKTIVHEEIGEFKFDHVFASHCTNLEVYERTSKPMIDKLLMGFNATIFAYGMTGSGKTFTMSGNEQELGLIPLSVSYLFTNIMEQSMNGDKKFDVIISYLEIYNERIYDLLESGLEESGSRISTPSRLYMSKSNSNGLGVELKIRDDSQYGVKVIGLTERRCESSEELLRWIAVGDKSRKIGETDYNARSSRSHAIVLIRLTSTNVKNGTSRSSTLSLCDLAGSERATGQQERRKEGSFINKSLLALGTVISKLSADKMNSVGSNIPSPSASGSSSSSGNATNNGTSPSNHIPYRDSKLTRLLQPALSGDSIVTTICTVDTRNDAAAETMNTLRFASRAKNVALHVSKKSIISNGNNDGDKDRTIELLRRQLEEQRRMISELKNRSNIGEPLTKSSNESTYKDIKATGN
notes: Kip2 motor domain with a first helix predicted to form part of the coiled coil, S. cerevisiae, residues 71–560; Mixed monomers and dimers by SEC-MALS (185 kD; monomer calculated 125.8 kD); also called MBP-Kip2-MD-mCherry; MBP-Kip2-MD; not shown: MBP, N-terminal, kept; mCherry, C-terminal, kept
stoichiometry N [3]: 1 MBP-Kip2-MD-mCherry dimer per tubulin dimer
stoichiometry N [4]: 2

B5: MBP-Kip2(71-560)-P1^−-mCherry (domain or fragment, S. cerevisiae, UniProt P28743 71-560, looked up)
chain: KSDPFLHPGRIRIRRSDSINNNSRKNDTYTGSITVTIRPKPRSVGTSRDHVGLKSPRYSQPRSNSHHGSNTFVRDPWFITNDKTIVHEEIGEFKFDHVFASHCTNLEVYERTSKPMIDKLLMGFNATIFAYGMTGSGKTFTMSGNEQELGLIPLSVSYLFTNIMEQSMNGDKKFDVIISYLEIYNERIYDLLESGLEESGSRISTPSRLYMSKSNSNGLGVELAIADDSQYGVKVIGLTERRCESSEELLRWIAVGDKSRKIGETDYNARSSRSHAIVLIRLTSTNVKNGTSRSSTLSLCDLAGSERATGQQERRKEGSFINKSLLALGTVISKLSADKMNSVGSNIPSPSASGSSSSSGNATNNGTSPSNHIPYRDSKLTRLLQPALSGDSIVTTICTVDTRNDAAAETMNTLRFASRAKNVALHVSKKSIISNGNNDGDKDRTIELLRRQLEEQRRMISELKNRSNIGEPLTKSSNESTYKDIKATGN
notes: Kip2 motor domain with a first helix of the coiled coil, S. cerevisiae, residues 71–560, patch 1 (Lys294, Arg296) substituted with alanines; Mixed monomers and dimers by SEC-MALS (192 kD); also called MBP-Kip2-MD-P1^−-mCherry; MBP-Kip2-MD-P1; not shown: MBP, N-terminal, kept; mCherry, C-terminal, kept
stoichiometry N [4]: 2

B6: Kip2 motor domain (Kip2-MD, residues 100–503) (domain or fragment, S. cerevisiae, UniProt P28743 100-503, looked up)
chain: TGSITVTIRPKPRSVGTSRDHVGLKSPRYSQPRSNSHHGSNTFVRDPWFITNDKTIVHEEIGEFKFDHVFASHCTNLEVYERTSKPMIDKLLMGFNATIFAYGMTGSGKTFTMSGNEQELGLIPLSVSYLFTNIMEQSMNGDKKFDVIISYLEIYNERIYDLLESGLEESGSRISTPSRLYMSKSNSNGLGVELKIRDDSQYGVKVIGLTERRCESSEELLRWIAVGDKSRKIGETDYNARSSRSHAIVLIRLTSTNVKNGTSRSSTLSLCDLAGSERATGQQERRKEGSFINKSLLALGTVISKLSADKMNSVGSNIPSPSASGSSSSSGNATNNGTSPSNHIPYRDSKLTRLLQPALSGDSIVTTICTVDTRNDAAAETMNTLRFASRAKNVALHVSKKSII
notes: Kip2 motor domain, S. cerevisiae, residues 100–503; Used in its apo state; The methods tell cleavage of the His tag only for Kip2-NMD and Kip2-NMD-ΔT; also called apo Kip2-MD; source: E. coli BL21 (DE3), purified (IMAC, SEC)
stoichiometry N [5]: 1

B7: Kip2 non-motor domain (Kip2-NMD, residues 504–706) (domain or fragment, S. cerevisiae, UniProt P28743 504-706, looked up)
chain: SNGNNDGDKDRTIELLRRQLEEQRRMISELKNRSNIGEPLTKSSNESTYKDIKATGNDGDPNLALMRAENRVLKYKLENCEKLLDKDVVDLQDSEIMEIVEMLPFEVGTLLETKFQGLESQIRQYRKYTQKLEDKIMALEKSGHTAMSLTGCDGTEVIELQKMLERKDKMIEALQSAKRLRDRALKPLINTQQSPHPVVDNDK
notes: Kip2 non-motor domain (coiled coil and C-terminal tail), S. cerevisiae, residues 504–706; Dimer by SEC-MALS (45 kD); PreScission site between His tag and protein; also called NMD-Kip2; source: E. coli BL21 (DE3), purified (IMAC, SEC); not shown: His6, N-terminal, cleaved
stoichiometry N [6]: 1 Kip2-NMD dimer per Bik1-CC dimer
stoichiometry N [2]: 2

B8: Kip2-NMD-ΔT (truncated non-motor domain of Kip2, residues 504–645) (domain or fragment, S. cerevisiae, UniProt P28743 504-645, looked up)
chain: SNGNNDGDKDRTIELLRRQLEEQRRMISELKNRSNIGEPLTKSSNESTYKDIKATGNDGDPNLALMRAENRVLKYKLENCEKLLDKDVVDLQDSEIMEIVEMLPFEVGTLLETKFQGLESQIRQYRKYTQKLEDKIMALEKS
notes: Kip2 non-motor domain lacking the C-terminal tail, S. cerevisiae, residues 504–645; Dimer by SEC-MALS (34 kD); also called Kip2-NMD-∆T; source: E. coli BL21 (DE3), purified (IMAC, SEC); not shown: His6, N-terminal, cleaved
stoichiometry N [2]: 2
